Laboratory results published in patent US11957762B2, “Immune tolerant and non-immune tolerant elastin-like recombinant peptides and methods of use” (University of Utah Research Foundation, priority 2015, dated 2024).

What was measured:
[1] = tested on: endothelial cells (EA.hy926 and bEnd.3) and fibroblasts (3T3); experiment: Cellular uptake of iTEP-vaccine fusions by control cells; format: cell-based; settings: 5 μM coumarin-labeled fusions, 4 h
Protocol: Cellular uptake of iTEP-vaccine fusions. DC2.4, EA.hy926, bEnd.3, 3T3 cells were plated at 1.5×10^5/500 μL/well in 24-well plates. When the cells attached to the bottom of the plate (4 h or overnight), the media was replaced with 500 μL of fresh media with or without 5 μM of coumarine labeled iTEP-vaccine fusions. After being cultured for 4 h at 37° C. in 5% CO2, the cells were collected and washed twice with PBS. The fluorescence of the cells was measured by flow cytometry (collecting 5×10^4 events per sample).

[2] = Thermally-induced reversible phase transition (turbidity OD350 vs temperature); format: physicochemical
Excerpt: Characterization of thermally-induced, reversible, inverse phase transition of iTEPs and the iTEPB-iTEPA-pOVA fusion. The phase transitions of iTEP or iTEP fusions were characterized by turbidity changes of sample solutions as a function of temperature. Specifically, the optical density at 350 nm (OD350) of a sample solution was monitored using an UV-visible spectrophotometer equipped with a multi-cell thermoelectric temperature controller (Cary 300, Varian Instruments, Walnut Creek, CA) while the solution was heated from 20° C. to 80° C. and then cooled to 20° C. at a rate of 1° C./min. The maximum first derivative of the turbidity curve of a sample was identified. The transition temperature (Tt) of the sample is the temperature that corresponds to the maximum derivative.

[3] = Quantification of free sulfhydryl groups (Ellman's method); format: physicochemical
Protocol: Quantification of free sulfhydryl groups of RED-NP after reducing treatments. Twenty mg of RED-NP were dissolved in 2 mL of H2O and treated with 1 mM of GSH for 16 h. The solution was then dialyzed (membrane cutoff MW: 3,500 Dalton) in deionized water at 4° C. for 24 h. Then the sample was concentrated to 0.5 mL using Amicon centrifugal filter devices (Millipore, USA). Numbers of free sulfhydryl groups of RED-NP were determined by Ellman's method. Briefly, 250 μL of sample and 50 μL of Ellman's reagent (Thermo Scientific, USA) were added to 2.5 mL of reaction buffer (0.1 M sodium phosphate, pH 8.0, 1 mM EDTA). After 15 min of incubation at room temperature, the OD412 was measured. To generate a standard curve of free sulfhydryl groups, OD412 of serial dilutions of cysteine hydrochloride monohydrate was measured. The serial OD412 values were plotted against concentrations of cysteine hydrochloride monohydrate to generate a standard curve. Concentrations of free sulfhydryl groups in the RED-NP samples were determined from the standard curve and used to calculate numbers of free sulfhydryl groups per iTEP-vaccine fusion molecules.

B1: ST-NP: stable NP of the fusion iTEPB70-iTEPA56-pOVA (SEQ ID NO: 60) (protein)
chain: GGAGVPGGAGVPGGAGVPGGAGVPGGAGVPGGAGVPGGAGVPGGAGVPGGAGVPGGAGVPGGAGVPGGAGVPGGAGVPGGAGVPGGAGVPGGAGVPGGAGVPGGAGVPGGAGVPGGAGVPGGAGVPGGAGVPGGAGVPGGAGVPGGAGVPGGAGVPGGAGVPGGAGVPGGAGVPGGAGVPGGAGVPGGAGVPGGAGVPGGAGVPGGAGVPGGAGVPGGAGVPGGAGVPGGAGVPGGAGVPGGAGVPGGAGVPGGAGVPGGAGVPGGAGVPGGAGVPGGAGVPGGAGVPGGAGVPGGAGVPGGAGVPGGAGVPGGAGVPGGAGVPGGAGVPGGAGVPGGAGVPGGAGVPGGAGVPGGAGVPGGAGVPGGAGVPGGAGVPGGAGVPGGAGVPGGAGVPGGAGVPGGAGVPGGAGVPGGAGVPGGGVLPGVGGVLPGVGGVLPGVGGVLPGVGGVLPGVGGVLPGVGGVLPGVGGVLPGVGGVLPGVGGVLPGVGGVLPGVGGVLPGVGGVLPGVGGVLPGVGGVLPGVGGVLPGVGGVLPGVGGVLPGVGGVLPGVGGVLPGVGGVLPGVGGVLPGVGGVLPGVGGVLPGVGGVLPGVGGVLPGVGGVLPGVGGVLPGVGGGGGGGGGCGGGGGGGGCGGGGGGGGCGGGGGGGGCGESIINFEKLTESIINFEKLTGG
With B1 the “uptake by endothelial cells and fibroblasts relative to the MS-NP” value [1] was “either the same amount or less”.

B2: G(GAGVPG)70G(GVLPGVG)28G(ESIINFEKLT)2GG (protein)
chain: GGAGVPGGAGVPGGAGVPGGAGVPGGAGVPGGAGVPGGAGVPGGAGVPGGAGVPGGAGVPGGAGVPGGAGVPGGAGVPGGAGVPGGAGVPGGAGVPGGAGVPGGAGVPGGAGVPGGAGVPGGAGVPGGAGVPGGAGVPGGAGVPGGAGVPGGAGVPGGAGVPGGAGVPGGAGVPGGAGVPGGAGVPGGAGVPGGAGVPGGAGVPGGAGVPGGAGVPGGAGVPGGAGVPGGAGVPGGAGVPGGAGVPGGAGVPGGAGVPGGAGVPGGAGVPGGAGVPGGAGVPGGAGVPGGAGVPGGAGVPGGAGVPGGAGVPGGAGVPGGAGVPGGAGVPGGAGVPGGAGVPGGAGVPGGAGVPGGAGVPGGAGVPGGAGVPGGAGVPGGAGVPGGAGVPGGAGVPGGAGVPGGAGVPGGAGVPGGAGVPGGESIINFEKLTESIINFEKLTGG
With B2 the “temperature of sharp increase of turbidity (formation of aggregates)” value [2] was 70 °C, the “Tt (cooling)” value ([2]; 25 μM in H2O) was 73.70 ± 0.23 °C and the “Tt (heating)” value ([2]; 25 μM in H2O) was 75.40 ± 0.14 °C.

B3: RED-NP: reductive-environment dependable NP, disulfide stabilized fusion iTEPB70-iTEPA28-(G8C)4-pOVA (SEQ ID NO: 61) (protein)
chain: GGAGVPGGAGVPGGAGVPGGAGVPGGAGVPGGAGVPGGAGVPGGAGVPGGAGVPGGAGVPGGAGVPGGAGVPGGAGVPGGAGVPGGAGVPGGAGVPGGAGVPGGAGVPGGAGVPGGAGVPGGAGVPGGAGVPGGAGVPGGAGVPGGAGVPGGAGVPGGAGVPGGAGVPGGAGVPGGAGVPGGAGVPGGAGVPGGAGVPGGAGVPGGAGVPGGAGVPGGAGVPGGAGVPGGAGVPGGAGVPGGAGVPGGAGVPGGAGVPGGAGVPGGAGVPGGAGVPGGAGVPGGAGVPGGAGVPGGAGVPGGAGVPGGAGVPGGAGVPGGAGVPGGAGVPGGAGVPGGAGVPGGAGVPGGAGVPGGAGVPGGAGVPGGAGVPGGAGVPGGAGVPGGAGVPGGAGVPGGAGVPGGAGVPGGAGVPGGAGVPGGGVLPGVGGVLPGVGGVLPGVGGVLPGVGGVLPGVGGVLPGVGGVLPGVGGVLPGVGGVLPGVGGVLPGVGGVLPGVGGVLPGVGGVLPGVGGVLPGVGGVLPGVGGVLPGVGGVLPGVGGVLPGVGGVLPGVGGVLPGVGGVLPGVGGVLPGVGGVLPGVGGVLPGVGGVLPGVGGVLPGVGGVLPGVGGVLPGVGGCGCGCGCGESIINFEKLTESIINFEKLTGG
For B3, the “free sulfhydryl groups, on average” value ([3]; after the treatment of 1 mM of GSH) was “two” and the “free sulfhydryl groups, on average” value ([3]; before GSH treatment) was “zero”.
